In ChEMBL document CHEMBL4602687, “Dual Binding to Orthosteric and Allosteric Sites Enhances the Anticancer Activity of a TRAP1-Targeting Drug” (J Med Chem, 2020):

Experiments:
[1] = substrate: Nc1ncnc2c1nc(Sc1cc3c(cc1I)OCO3)n2CCCCCCCCCC[P+](c1ccccc1)(c1ccccc1)c1ccccc1; test: (§1) Allosteric modulation of recombinant wild-type human TRAP1 ATPase activity expressed in Escherichia coli BL21 (DE3) assessed as substrate Kcat at 5 uM preincubated for 0.5 hrs followed by varying levels of ATP addition and measured after 3 hrs using PiColorLock Gold reagent by colorimetric assay-based Lineweaver-Burk plot analysis (reference value: 0.87 +/- 0.01 10^-2 secs)
[2] = compound: CC(C)NCCCn1c(Sc2cc3c(cc2I)OCO3)nc2c(N)ncnc21; test: as §1, with “Competitive inhibition” for “Allosteric modulation”, “Km” for “Kcat”, “84.42” for “0.87”, “3.84 uM)” for “0.01 10^-2 secs)”
[3] = compound: CC(C)NCCCn1c(Sc2cc3c(cc2I)OCO3)nc2c(N)ncnc21; test: as §1, with “Competitive inhibition” for “Allosteric modulation”
[4] = substrate: Nc1ncnc2c1nc(Sc1cc3c(cc1I)OCO3)n2CCCCCCCCCC[P+](c1ccccc1)(c1ccccc1)c1ccccc1; test: as §1, with “Km” for “Kcat”, “84.42” for “0.87”, “3.84 uM)” for “0.01 10^-2 secs)”
[5] = compound: CC(C)NCCCn1c(Sc2cc3c(cc2I)OCO3)nc2c(N)ncnc21; test: (§2) Competitive inhibition of recombinant wild-type human TRAP1 ATPase activity expressed in Escherichia coli BL21 (DE3) assessed as ratio of substrate Kcat to Km at 5 uM preincubated for 0.5 hrs followed by varying levels of ATP addition and measured after 3 hrs using PiColorLock Gold reagent by colorimetric assay-based Lineweaver-Burk plot analysis (reference value: 10.3 +/- 0.54 10^-5 /s/uM)
[6] = substrate: Nc1ncnc2c1nc(Sc1cc3c(cc1I)OCO3)n2CCCCCCCCCC[P+](c1ccccc1)(c1ccccc1)c1ccccc1; test: as §2, with “Allosteric modulation” for “Competitive inhibition”

B1: Heat shock protein 75 kDa, mitochondrial (Homo sapiens), Q12931 (protein)
chain: MARELRALLLWGRRLRPLLRAPALAAVPGGKPILCPRRTTAQLGPRRNPAWSLQAGRLFSTQTAEDKEEPLHSIISSTESVQGSTSKHEFQAETKKLLDIVARSLYSEKEVFIRELISNASDALEKLRHKLVSDGQALPEMEIHLQTNAEKGTITIQDTGIGMTQEELVSNLGTIARSGSKAFLDALQNQAEASSKIIGQFGVGFYSAFMVADRVEVYSRSAAPGSLGYQWLSDGSGVFEIAEASGVRTGTKIIIHLKSDCKEFSSEARVRDVVTKYSNFVSFPLYLNGRRMNTLQAIWMMDPKDVREWQHEEFYRYVAQAHDKPRYTLHYKTDAPLNIRSIFYVPDMKPSMFDVSRELGSSVALYSRKVLIQTKATDILPKWLRFIRGVVDSEDIPLNLSRELLQESALIRKLRDVLQQRLIKFFIDQSKKDAEKYAKFFEDYGLFMREGIVTATEQEVKEDIAKLLRYESSALPSGQLTSLSEYASRMRAGTRNIYYLCAPNRHLAEHSPYYEAMKKKDTEVLFCFEQFDELTLLHLREFDKKKLISVETDIVVDHYKEEKFEDRSPAAECLSEKETEELMAWMRNVLGSRVTNVKVTLRLDTHPAMVTVLEMGAARHFLRMQQLAKTQEERAQLLQPTLEINPRHALIKKLNQLRASEPGLAQLLVDQIYENAMIAAGLVDDPRAMVGRLNELLVKALERH
In the case of B1, the kcat [1] is reported as 2.51 ×10⁻² /s, the Km [2] is reported as 1050 µM and the kcat [3] is reported as 0.8 ×10⁻² /s. It also gave a Km [4] of 506 µM, a kcat/Km [5] of 0.76 ×10⁻⁵ /s/µM and a kcat/Km [6] of 4.99 ×10⁻⁵ /s/µM.
